Test results published in patent US20100291106A1 (Novartis, published 2010).

Key:
[1] = molecular target: T1, human complement C3b protein (human, UniProt P01024 23-667; P01024 749-1663); experiment: solution equilibrium titration (SET), ECL detection, Fab
T1 construct: Purified plasma C3b (Complement Technology, Quidel); Depending on the assay it was captured by an anti-C3d antibody, coated, biotinylated or coupled to beads; also called human C3b; huC3b

[2] = molecular target: T2, cynomolgus complement C3b protein (cynomolgus monkey (Macaca fascicularis)); experiment: as above
T2 construct: also called cyno C3b; cynoC3b

[3] = molecular target: T1, human complement C3b protein; experiment: cell-based or functional assay
[4] = molecular target: T2, cynomolgus complement C3b protein; experiment: cell-based or functional assay
[5] = molecular target: T1, human complement C3b protein; experiment: SPR (Biacore), C3b captured by anti-C3d antibody, Fab as analyte
[6] = molecular target: T2, cynomolgus complement C3b protein; experiment: as above
human C3d = molecular target: T3, human C3d (human, UniProt P01024 1002-1303); experiment: cross reactivity, ELISA on C3d, anti-His detection
T3 construct: domain: C3d
T3 sequence (P01024 1002-1303 limits assumed): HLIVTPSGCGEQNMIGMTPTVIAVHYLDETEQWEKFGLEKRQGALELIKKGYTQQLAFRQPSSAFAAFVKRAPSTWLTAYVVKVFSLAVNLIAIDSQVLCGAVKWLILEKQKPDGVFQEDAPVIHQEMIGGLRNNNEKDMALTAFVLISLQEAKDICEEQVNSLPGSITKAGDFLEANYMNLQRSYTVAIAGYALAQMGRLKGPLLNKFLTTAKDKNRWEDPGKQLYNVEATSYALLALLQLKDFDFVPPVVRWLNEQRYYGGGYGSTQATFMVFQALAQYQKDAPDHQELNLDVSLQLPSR

human C5 = molecular target: T4, human C5 (human, UniProt P01031 19-673; P01031 678-1676); experiment: cross reactivity, capture ELISA with anti-C5 capture antibody, anti-His detection
T4 construct: Captured by an anti-C5 antibody in the ELISA
T4 sequence (P01031 19-673 limits assumed, chain 1 of 2): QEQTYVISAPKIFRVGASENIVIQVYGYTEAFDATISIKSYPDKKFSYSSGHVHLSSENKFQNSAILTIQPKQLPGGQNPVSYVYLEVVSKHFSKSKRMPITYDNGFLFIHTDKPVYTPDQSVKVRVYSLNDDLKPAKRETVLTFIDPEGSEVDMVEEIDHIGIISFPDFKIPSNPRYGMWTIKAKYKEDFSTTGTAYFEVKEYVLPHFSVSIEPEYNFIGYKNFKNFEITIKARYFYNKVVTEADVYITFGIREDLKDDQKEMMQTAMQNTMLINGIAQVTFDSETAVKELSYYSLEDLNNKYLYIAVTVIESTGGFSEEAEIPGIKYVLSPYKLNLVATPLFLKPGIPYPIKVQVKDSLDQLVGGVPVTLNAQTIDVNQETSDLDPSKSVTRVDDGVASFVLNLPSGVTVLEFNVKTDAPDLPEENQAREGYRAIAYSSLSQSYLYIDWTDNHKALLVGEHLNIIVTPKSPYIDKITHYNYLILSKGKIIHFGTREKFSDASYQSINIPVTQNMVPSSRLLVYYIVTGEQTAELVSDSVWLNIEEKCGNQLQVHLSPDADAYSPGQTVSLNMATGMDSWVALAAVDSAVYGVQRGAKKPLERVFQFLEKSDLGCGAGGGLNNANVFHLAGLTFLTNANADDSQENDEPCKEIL
T4 sequence (P01031 678-1676 limits assumed, chain 2 of 2): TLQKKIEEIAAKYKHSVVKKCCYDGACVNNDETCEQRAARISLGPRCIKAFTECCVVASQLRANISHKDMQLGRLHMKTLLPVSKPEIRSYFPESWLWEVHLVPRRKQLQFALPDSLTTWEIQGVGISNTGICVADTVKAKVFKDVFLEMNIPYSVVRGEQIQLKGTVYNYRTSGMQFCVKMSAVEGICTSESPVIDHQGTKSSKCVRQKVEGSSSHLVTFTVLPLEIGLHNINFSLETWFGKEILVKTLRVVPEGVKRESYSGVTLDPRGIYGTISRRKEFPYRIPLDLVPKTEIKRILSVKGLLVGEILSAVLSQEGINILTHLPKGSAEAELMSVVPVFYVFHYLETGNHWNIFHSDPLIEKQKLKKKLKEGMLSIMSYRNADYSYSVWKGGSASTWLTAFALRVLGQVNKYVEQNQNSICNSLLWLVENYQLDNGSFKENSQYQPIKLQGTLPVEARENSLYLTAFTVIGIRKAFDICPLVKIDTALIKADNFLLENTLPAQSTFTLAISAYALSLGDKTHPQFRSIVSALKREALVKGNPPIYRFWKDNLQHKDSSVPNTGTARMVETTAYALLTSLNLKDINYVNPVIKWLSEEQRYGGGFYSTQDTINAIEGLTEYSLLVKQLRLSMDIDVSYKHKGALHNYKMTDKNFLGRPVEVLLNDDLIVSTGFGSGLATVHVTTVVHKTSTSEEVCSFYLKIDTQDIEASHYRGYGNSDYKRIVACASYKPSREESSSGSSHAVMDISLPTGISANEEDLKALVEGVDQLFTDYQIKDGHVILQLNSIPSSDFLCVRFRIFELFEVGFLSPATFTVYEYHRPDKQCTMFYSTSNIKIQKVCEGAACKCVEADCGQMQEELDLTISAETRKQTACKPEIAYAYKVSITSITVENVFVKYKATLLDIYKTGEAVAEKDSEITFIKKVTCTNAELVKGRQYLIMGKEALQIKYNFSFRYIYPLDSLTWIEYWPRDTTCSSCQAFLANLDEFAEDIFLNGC

T1 sequence (P01024 23-667 P314L, chain 1 of 2): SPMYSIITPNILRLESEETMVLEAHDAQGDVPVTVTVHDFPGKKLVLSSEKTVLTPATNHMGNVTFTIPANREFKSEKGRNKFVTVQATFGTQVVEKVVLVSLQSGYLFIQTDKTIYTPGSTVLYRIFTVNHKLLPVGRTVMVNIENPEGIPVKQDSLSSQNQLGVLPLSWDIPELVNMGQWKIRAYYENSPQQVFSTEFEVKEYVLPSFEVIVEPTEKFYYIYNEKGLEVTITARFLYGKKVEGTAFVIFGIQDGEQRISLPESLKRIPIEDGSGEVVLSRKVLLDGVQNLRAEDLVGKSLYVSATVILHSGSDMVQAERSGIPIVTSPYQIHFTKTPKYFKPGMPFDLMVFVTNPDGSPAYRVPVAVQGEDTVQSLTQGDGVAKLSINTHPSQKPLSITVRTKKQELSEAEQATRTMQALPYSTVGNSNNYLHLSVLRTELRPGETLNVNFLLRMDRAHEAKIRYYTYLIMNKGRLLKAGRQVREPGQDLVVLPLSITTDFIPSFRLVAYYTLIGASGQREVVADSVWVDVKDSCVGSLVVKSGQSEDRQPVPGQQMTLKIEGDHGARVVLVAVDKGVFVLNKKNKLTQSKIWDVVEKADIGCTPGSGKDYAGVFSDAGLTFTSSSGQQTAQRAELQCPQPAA
T1 sequence (P01024 749-1663, chain 2 of 2): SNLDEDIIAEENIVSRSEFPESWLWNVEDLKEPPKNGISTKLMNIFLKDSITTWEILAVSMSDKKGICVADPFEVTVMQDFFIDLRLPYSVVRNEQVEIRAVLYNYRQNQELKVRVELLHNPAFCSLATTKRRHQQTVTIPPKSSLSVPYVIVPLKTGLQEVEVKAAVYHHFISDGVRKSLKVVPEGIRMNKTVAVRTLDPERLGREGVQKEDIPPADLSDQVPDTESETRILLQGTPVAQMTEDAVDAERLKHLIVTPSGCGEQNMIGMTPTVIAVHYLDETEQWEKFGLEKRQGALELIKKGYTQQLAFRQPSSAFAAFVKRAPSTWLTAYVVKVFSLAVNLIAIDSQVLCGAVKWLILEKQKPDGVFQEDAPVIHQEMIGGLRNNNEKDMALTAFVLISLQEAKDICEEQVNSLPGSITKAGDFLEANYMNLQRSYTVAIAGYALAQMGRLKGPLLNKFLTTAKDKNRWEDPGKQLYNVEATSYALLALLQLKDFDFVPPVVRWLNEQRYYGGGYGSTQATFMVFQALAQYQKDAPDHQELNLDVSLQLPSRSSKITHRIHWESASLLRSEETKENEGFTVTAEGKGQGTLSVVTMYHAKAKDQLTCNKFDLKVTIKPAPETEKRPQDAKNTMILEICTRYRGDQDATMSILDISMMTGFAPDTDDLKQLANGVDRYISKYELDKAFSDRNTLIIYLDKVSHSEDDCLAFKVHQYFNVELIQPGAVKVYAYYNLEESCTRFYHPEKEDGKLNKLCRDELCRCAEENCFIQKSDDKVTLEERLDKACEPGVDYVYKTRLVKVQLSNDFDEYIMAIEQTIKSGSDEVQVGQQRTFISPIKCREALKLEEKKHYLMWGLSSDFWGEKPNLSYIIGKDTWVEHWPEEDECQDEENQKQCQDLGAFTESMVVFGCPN

B1: MOR9610 Fab format (Fab, V domains shown)
VH: EVQLVQSGAEVKKPGSSVKVSCKASGGTFSSYTFSWVRQAPGQGLEWMGNILPIFGDANYAQKFQGRVTITADESTSTAYMELSSLRSEDTAVYYCARNKGAFYYMSTYPSLDVWGQGTLVTVSS
VL: DIQMTQSPSSLSASVGDRVTITCRASQNINYYLNWYQQKPGKAPKLLIYDAFSLQSGVPSRFSGSGSGTDFTLTISSLQPEDFATYYCQQSIAVPPFTFGQGTKVEIK
Kd [1]: 0.018 nM
Kd [2]: 0.006 nM
C3a (nM), human, inhibition of C3a generation [3]: 66 nM
C3b Dep (nM), human serum, IC50 [3]: 20 nM
C5a (nM), human, inhibition of C5a generation [3]: 34 nM
HA (nM), 10% human serum, IC50 [3]: 63 nM
MAC Dep (nM), human serum, IC50 [3]: 4 nM
C3b Dep (nM), cyno serum, IC50 [4]: 39 nM
HA (nM), 10% cyno serum, IC50 [4]: 64 nM
MAC Dep (nM), cyno serum, IC50 [4]: 18 nM
Kd [5]: 0.114 nM
Kd [6]: 0.07 nM
binding result (human C3d): no binding
binding result (human C5): no binding
